What follows are sequences tested on Escherichia coli TOP10 (assay: shrunken log2 fold change of peptide-encoding DNA abundance (4.5 h post-induction vs induction); higher = less antimicrobial activity (less host growth inhibition)). Settings: time post-induction: 4.5 h; library: site-saturation at positions 5, 18, 19, 20.
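Further: peptides expressed intracellularly from a pBAD plasmid library in pooled LB shake-flask culture, induced with 0.3% L-arabinose, DNA abundance read by NGS, three biological replicates, DESeq2 with apeglm shrinkage.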

Row | Sequence | shrunken log2 fold change
1 | RRIRERPPRLPRPRPRPIHWPRP | -0.0429
2 | RRIRYRPPRLPRPRPRPHLKPRP | -0.452
3 | RRIRSRPPRLPRPRPRPAKAPRP | 0.000841
4 | RRIRHRPPRLPRPRPRPMAHPRP | 0.0179
5 | RRIRRRPPRLPRPRPRPWIKPRP | 0.0892
6 | RRIRKRPPRLPRPRPRPDFHPRP | -0.312
7 | RRIRERPPRLPRPRPRPSEGPRP | 0.00843
8 | RRIRDRPPRLPRPRPRPDQQPRP | 0.0408
9 | RRIRLRPPRLPRPRPRPRGVPRP | 0.494
10 | RRIRGRPPRLPRPRPRPEGSPRP | 1.28
11 | RRIRERPPRLPRPRPRPACRPRP | 0.392
12 | RRIRWRPPRLPRPRPRPPSMPRP | 0.405
13 | RRIRCRPPRLPRPRPRPCFGPRP | -0.137
14 | RRIRTRPPRLPRPRPRPCLCPRP | -0.29
15 | RRIRHRPPRLPRPRPRPSDHPRP | -0.548
16 | RRIRGRPPRLPRPRPRPSKNPRP | 0.619
17 | RRIRQRPPRLPRPRPRPDSHPRP | -0.065
18 | RRIRFRPPRLPRPRPRPLLWPRP | 0.305
19 | RRIRQRPPRLPRPRPRPRQRPRP | 0.245
20 | RRIRERPPRLPRPRPRPYHGPRP | -0.47
21 | RRIRERPPRLPRPRPRPVWRPRP | 0.202
22 | RRIRMRPPRLPRPRPRPDIKPRP | 1.51
23 | RRIRDRPPRLPRPRPRPHQMPRP | 0.00713
24 | RRIRKRPPRLPRPRPRPWMFPRP | -0.000428
25 | RRIRSRPPRLPRPRPRPTRMPRP | 1.03

Row | Sequence | shrunken log2 fold change
26 | RRIRFRPPRLPRPRPRPWIEPRP | -0.224
27 | RRIRLRPPRLPRPRPRPLAVPRP | 0.139
28 | RRIRYRPPRLPRPRPRPEYMPRP | -0.271
29 | RRIRARPPRLPRPRPRPKRTPRP | 0.553
30 | RRIRHRPPRLPRPRPRPYEHPRP | -1.01
31 | RRIRPRPPRLPRPRPRPLRNPRP | 0.673
32 | RRIRGRPPRLPRPRPRPLMLPRP | 0.462
33 | RRIRGRPPRLPRPRPRPMPTPRP | 0.612
34 | RRIRERPPRLPRPRPRPYDLPRP | -0.169
35 | RRIRMRPPRLPRPRPRPGRWPRP | 1.66
36 | RRIRKRPPRLPRPRPRPDPHPRP | -0.0362
37 | RRIRSRPPRLPRPRPRPWGDPRP | -0.077
38 | RRIRTRPPRLPRPRPRPFALPRP | -0.0597
39 | RRIRPRPPRLPRPRPRPSKWPRP | -0.242
40 | RRIRVRPPRLPRPRPRPHWPPRP | -0.122
41 | RRIRSRPPRLPRPRPRPLRIPRP | -0.0455
42 | RRIRFRPPRLPRPRPRPRFHPRP | -0.409
43 | RRIRLRPPRLPRPRPRPEFTPRP | -0.0622
44 | RRIRDRPPRLPRPRPRPNVPPRP | 0.0123
45 | RRIRSRPPRLPRPRPRPYFWPRP | -0.538
46 | RRIRSRPPRLPRPRPRPQCIPRP | -1.27
47 | RRIRHRPPRLPRPRPRPSMHPRP | -0.705
48 | RRIRVRPPRLPRPRPRPHHIPRP | -0.386
49 | RRIRLRPPRLPRPRPRPNFVPRP | -0.196
50 | RRIRERPPRLPRPRPRPRYVPRP | -0.0655

Row | Sequence | shrunken log2 fold change
51 | RRIRYRPPRLPRPRPRPSIYPRP | -1.09
52 | RRIRDRPPRLPRPRPRPVNGPRP | -0.0115
53 | RRIRLRPPRLPRPRPRPNLYPRP | -0.38
54 | RRIRWRPPRLPRPRPRPWCRPRP | -0.000362
55 | RRIRGRPPRLPRPRPRPFVWPRP | 0.278
56 | RRIRMRPPRLPRPRPRPNQFPRP | -0.0124
57 | RRIRYRPPRLPRPRPRPNVQPRP | -0.0298
58 | RRIRYRPPRLPRPRPRPPTNPRP | 0.0849
59 | RRIRIRPPRLPRPRPRPLIPPRP | -0.692
60 | RRIRCRPPRLPRPRPRPFHRPRP | 0.00717
61 | RRIRERPPRLPRPRPRPWLEPRP | 0.101
62 | RRIRVRPPRLPRPRPRPRMPPRP | 0.278
63 | RRIRARPPRLPRPRPRPFPPPRP | 0.332
64 | RRIRDRPPRLPRPRPRPTMIPRP | -0.587
65 | RRIRVRPPRLPRPRPRPFGYPRP | -0.425
66 | RRIRKRPPRLPRPRPRPIQPPRP | -0.00952
67 | RRIRSRPPRLPRPRPRPLAYPRP | 0.0208
68 | RRIRMRPPRLPRPRPRPLISPRP | 0.171
69 | RRIRVRPPRLPRPRPRPLYKPRP | -0.584
70 | RRIRQRPPRLPRPRPRPNREPRP | -0.0709
71 | RRIRMRPPRLPRPRPRPFFDPRP | 0.232
72 | RRIRGRPPRLPRPRPRPGLRPRP | 0.875
73 | RRIRTRPPRLPRPRPRPSALPRP | -0.178
74 | RRIRNRPPRLPRPRPRPLDPPRP | -0.117
75 | RRIRDRPPRLPRPRPRPKNQPRP | -0.076

Row | Sequence | shrunken log2 fold change
76 | RRIRLRPPRLPRPRPRPLCKPRP | -0.398
77 | RRIRQRPPRLPRPRPRPWLTPRP | -0.13
78 | RRIRQRPPRLPRPRPRPKYVPRP | 0.178
79 | RRIRTRPPRLPRPRPRPMACPRP | 0.0855
80 | RRIRWRPPRLPRPRPRPMLAPRP | 1
81 | RRIRMRPPRLPRPRPRPWKPPRP | -0.0836
82 | RRIRMRPPRLPRPRPRPEHTPRP | 2.63
83 | RRIRWRPPRLPRPRPRPDWHPRP | -0.0337
84 | RRIRRRPPRLPRPRPRPHYCPRP | -0.356
85 | RRIRARPPRLPRPRPRPGYKPRP | -0.268
86 | RRIRERPPRLPRPRPRPCSFPRP | -0.153
87 | RRIRCRPPRLPRPRPRPQLKPRP | -0.194
88 | RRIRCRPPRLPRPRPRPLEMPRP | -0.249
89 | RRIRNRPPRLPRPRPRPGFCPRP | 0.164
90 | RRIRCRPPRLPRPRPRPAMRPRP | 0.509
91 | RRIRIRPPRLPRPRPRPIFSPRP | -0.181
92 | RRIRVRPPRLPRPRPRPCIIPRP | -0.0793
93 | RRIRDRPPRLPRPRPRPWSLPRP | 0.0709
94 | RRIRGRPPRLPRPRPRPIEQPRP | 0.109
95 | RRIRPRPPRLPRPRPRPKMWPRP | 0.299
96 | RRIRMRPPRLPRPRPRPLSMPRP | -0.289
97 | RRIRSRPPRLPRPRPRPEDTPRP | -0.00541
98 | RRIRCRPPRLPRPRPRPLSQPRP | 0.0133
99 | RRIRKRPPRLPRPRPRPKMHPRP | 0.483
100 | RRIRRRPPRLPRPRPRPEGPPRP | 0.568

Row | Sequence | shrunken log2 fold change
101 | RRIRYRPPRLPRPRPRPCRQPRP | -0.442
102 | RRIRTRPPRLPRPRPRPMDCPRP | -0.0416
103 | RRIRPRPPRLPRPRPRPAMDPRP | 0.0161
104 | RRIRQRPPRLPRPRPRPLCRPRP | -0.272
105 | RRIRIRPPRLPRPRPRPMNWPRP | -0.135
106 | RRIRNRPPRLPRPRPRPQLQPRP | -0.0979
107 | RRIRPRPPRLPRPRPRPPDYPRP | -0.107
108 | RRIRWRPPRLPRPRPRPHQEPRP | 0.0101
109 | RRIRTRPPRLPRPRPRPTEQPRP | 0.303
110 | RRIRVRPPRLPRPRPRPPGTPRP | 0.273
111 | RRIRYRPPRLPRPRPRPDLLPRP | -0.0601
112 | RRIRWRPPRLPRPRPRPPFHPRP | 0.0947
113 | RRIRERPPRLPRPRPRPYYDPRP | -0.362
114 | RRIRFRPPRLPRPRPRPQASPRP | 0.0447
115 | RRIRKRPPRLPRPRPRPPACPRP | 0.197
116 | RRIRLRPPRLPRPRPRPLTWPRP | 0.0168
117 | RRIRERPPRLPRPRPRPSMCPRP | -0.409
118 | RRIRERPPRLPRPRPRPWDTPRP | -0.623
119 | RRIRIRPPRLPRPRPRPRYQPRP | 0.00748
120 | RRIRDRPPRLPRPRPRPCTYPRP | -0.0116
121 | RRIRSRPPRLPRPRPRPFGCPRP | 0.029
122 | RRIRFRPPRLPRPRPRPGHHPRP | -0.561
123 | RRIRHRPPRLPRPRPRPSFGPRP | -0.561
124 | RRIRARPPRLPRPRPRPCTPPRP | -0.0509
125 | RRIRERPPRLPRPRPRPLYTPRP | -0.41

Row | Sequence | shrunken log2 fold change
126 | RRIRVRPPRLPRPRPRPSVHPRP | -0.0573
127 | RRIRWRPPRLPRPRPRPEPIPRP | 0.204
128 | RRIRFRPPRLPRPRPRPRTQPRP | 1.93
129 | RRIRNRPPRLPRPRPRPGGPPRP | 0.37
130 | RRIRDRPPRLPRPRPRPRKEPRP | -0.00977
131 | RRIRVRPPRLPRPRPRPFPIPRP | -0.39
132 | RRIRTRPPRLPRPRPRPNNHPRP | -0.345
133 | RRIRCRPPRLPRPRPRPGPRPRP | 0.713
134 | RRIRRRPPRLPRPRPRPGGYPRP | -0.0378
135 | RRIRFRPPRLPRPRPRPDSQPRP | -0.271
136 | RRIRERPPRLPRPRPRPDDIPRP | -0.793
137 | RRIRHRPPRLPRPRPRPFMYPRP | -0.249
138 | RRIRDRPPRLPRPRPRPDFSPRP | 0.0345
139 | RRIRMRPPRLPRPRPRPRVNPRP | 1.08
140 | RRIRLRPPRLPRPRPRPEHWPRP | 0.4
141 | RRIRWRPPRLPRPRPRPVVSPRP | 0.0155
142 | RRIRARPPRLPRPRPRPRVFPRP | 0.704
143 | RRIRQRPPRLPRPRPRPLVKPRP | -0.166
144 | RRIRVRPPRLPRPRPRPSTPPRP | -0.0614
145 | RRIRPRPPRLPRPRPRPADHPRP | -0.015
146 | RRIRLRPPRLPRPRPRPQMFPRP | -0.427
147 | RRIRIRPPRLPRPRPRPMKRPRP | 0.0451
148 | RRIRYRPPRLPRPRPRPPDMPRP | -0.625
149 | RRIRDRPPRLPRPRPRPVNSPRP | 0.0226
150 | RRIRHRPPRLPRPRPRPWPFPRP | -0.285

Source: the supplement of paper PMC9112550, “Optimization of the antimicrobial peptide Bac7 by deep mutational scanning” (BMC Biology, 2022)
